Test results from US20160279199A1, “PHARMACEUTICAL COMPOSITION FOR TREATING A METABOLIC SYNDROME” (Sanofi, priority 2010, published 2016).

B1: FGF-21 (SEQ ID NO: 2): mutated FGF-21 carrying a deletion of amino acids 1-28 of human FGF-21 and an additional glycine at the N-terminus (protein)
chain: GHPIPDSSPLLQFGGQVRQRYLYTDDAQQTEAHLEIREDGTVGGAADQSPESLLQLKALKPGVIQILGVKTSRFLCQRPDGALYGSLHFDPEACSFRELLLEDGYNVYQSEAHGLPLHLPGNKSPHRDPAPRGPARFLPLPGLPPAPPEPPGILAPQPPDVGSSDPLSMVGPSQGRSPSYAS
modifications: G linked to fragment of human FGF21 from H29 to S209
notes: mutated FGF-21 carrying a deletion of amino acids 1-28 of human FGF-21 and an additional glycine at the N-terminus
B2: FGF21: Fibroblast growth factor 21, metabolic regulator produced primarily by the liver, as studied in the cited literature (protein, UniProt Q9NSA1 29-209, looked up)
Fibroblast growth factor 21: HPIPDSSPLLQFGGQVRQRYLYTDDAQQTEAHLEIREDGTVGGAADQSPESLLQLKALKPGVIQILGVKTSRFLCQRPDGALYGSLHFDPEACSFRELLLEDGYNVYQSEAHGLPLHLPGNKSPHRDPAPRGPARFLPLPGLPPALPEPPGILAPQPPDVGSSDPLSMVGPSQGRSPSYAS

Key:
[1] = system: db/db mice; test: Oral glucose tolerance test (OGTT) in treated db/db mice; assay type: in vivo, mouse; settings: after 21 days s.c. once daily (AVE0010 0.05, FGF-21 0.75, combination 0.75+0.05 mg·kg−1·day−1), fasted, 2 g·kg−1 oral glucose, vs vehicle treated obese control, FIG. 5
Protocol: (§1) Female db/db mice (BKS.Cg-m +/+ Leprdb/J, age of 6 weeks) were treated with vehicle (PBS), 0.05 mg·kg^−1·day^−1 AVE0010, 0.75 mg·kg^−1·day^−1 recombinant human FGF-21 (SEQ ID NO: 2) or a combined dose of FGF-21 (SEQ ID NO: 2) and AVE0010 (SEQ ID NO:9), (0.75+0.05 mg·kg^−1·day^−1) subcutaneously once daily. Mice were fed ad libitum. Before the first treatment, after one week and 4 weeks blood glucose and HbA1c were measured under fed conditions. After 21 days of treatment an oral glucose tolerance test (OGTT) was initiated. Fasted mice were orally challenged with 2 g·kg^−1 glucose solution and blood glucose was measured at indicated time points.

[2] = system: db/db mice; test: Fed blood glucose during treatment of db/db mice; assay type: in vivo, mouse; settings: s.c. once daily (AVE0010 0.05, FGF-21 0.75, combination 0.75+0.05 mg·kg−1·day−1), up to 4 weeks, FIG. 6
Protocol: as §1

[3] = system: ob/ob mice, db/db mice, ZDF rats; settings: cited from earlier work
[4] = system: mouse 3T3-L1 adipocytes; settings: in the presence and absence of insulin; cited from earlier work
[5] = system: diabetic rhesus monkeys; settings: 6 weeks; cited from earlier work
[6] = ob/ob and db/db mice and obese ZDF rats

Molecule	glucose tolerance (OGTT) [1]	blood glucose [2]	mitogenicity, hypoglycemia, or weight gain ([3]; any dose tested, diabetic or healthy animals)	food intake or body weight/composition ([3]; diabetic or lean mice and rats, 2 weeks of administration)	fed and fasting blood glucose, triglycerides, and glucagon levels ([3]; ob/ob and db/db mice and 8 week old ZDF rats, dose dependent)	blood glucose and triglycerides [3, 6]	fasting insulin levels [3, 6]	glucose clearance during an oral glucose tolerance test [3, 6]	glucose uptake [4]	HDL-cholesterol [5]	LDL-cholesterol [5]	body weight [5]	fasting plasma glucose, fructosamine, triglyceride, insulin and glucagone levels [5]	hypoglycemia [5]
B1	small improvement in glucose tolerance	inhibition of blood glucose increase												
B2			did not induce	did not affect	decrease	significantly lowered	decreased	improved	stimulate glucose uptake	increased	significantly lowered	slightly but significantly decreased	reduced	not observed
